Substitutions are numbered along the chain they refer to.
B1: HFB6-5hz9-hG1 (antibody, human IgG1, V domains shown)
VH: EVQLVESGGGLVQPGRSLRLSCTASGVNIKDTYMYWVRQAPGKGLEWVGRIDPANGYTRYTASFKGRATISADGSKSIAYLQMNSLKTEDTAVYYCAVYDGYYESFDVWGQGTLVTVSS
VL: DVVMTQSPLSLPVTLGQPASISCRSSQSLLDSDGKTYLNWLQQRPGQSPRRLIYLVSKRDSGVPDRFSGSGSGTDFTLKISRVEAEDLGVYYCWQGTLFPRTFGQGTKLEIK
notes: Humanized variant of HFB6-5, human IgG1 (hG1)
B2: HFB6-5hz11-hG1 (antibody, human IgG1, V domains shown)
VH: QVQLQESGPGLVKPSGTLSLTCAASGVNIKDTYMYWVRQPPGKGLEWIGRIDPANGYTRYNPSFKSRATISADKSKNQASLKLSSVTAADTAVYYCAVYDGYYESFDVWGQGTLVTVSS
VL: B1 VL
notes: as for B1
B3: HFB6-5hz15-hG1 (antibody, human IgG1, V domains shown)
VH: B1 VH
VL: EIVLTQSPGTLSVSPGERATISCRSSQSLLDSDGKTYLNWLQQKPGQAPRRLIYLVSKRDTGVPDRFSGSGSGTDFTLTISRVEPEDFAVYYCWQGTLFPRTFGQGTKLEIK
notes: as for B1
B4: HFB6-5hz12-hG1 (antibody, human IgG1, V domains shown)
VH: EVQLVQSGAEVKKPGESLKISCKGSGVNIKDTYMYWVRQMPGKGLEWIGRIDPANGYTRYSPSFQGQVTISADKSISTAYLQLSSLKASDTAMYYCAVYDGYYESFDVWGQGTLVTVSS
VL: B1 VL
notes: as for B1
B5: HFB6-5hz16-hG1 (antibody, human IgG1, V domains shown)
VH: B1 VH with R16G, R19K, T23A, P41S, V48I, T61A, G74D, S77N, I78T, M83L
VL: B3 VL
notes: as for B1
B6: HFB6-5hz10-hG1 (antibody, human IgG1, V domains shown)
VH: B1 VH with R16G, R19K, T23A, P41S, V48I, T61A, G74D, S77N, I78T, M83L
VL: B1 VL
notes: as for B1
B7: HFB6-4hz21-hG1 (antibody, human IgG1, V domains shown)
VH: EVQLVESGGGLVQPGRSLRLSCTTSGFNIKDTYIHWFRQAPGKGLEWVGRNDPANGNTKYTASFKGRATISADGSKSIAYLQMNSLKTEDTAVYYCASYEGYYERFGYWGQGTLVTVSS
VL: DIVMTQSPDSLAVSLGERATINCKSSQSLLDRDGKTYLNWLQQKPGQSPKRLIYLVSKLDSGVPDRFSGSGSGTDFTLTISSLQAEDLAVYYCWQDTHFPYTFGQGTKLEIK
notes: Humanized variant of HFB6-4, human IgG1 (hG1)
B8: HFB6-4hz23-hG1 (antibody, human IgG1, V domains shown)
VH: QVQLQESGPGLVKPSGTLSLTCAVSGFNIKDTYIHWVRQPPGKGLEWIGRNDPANGNTKYNPSFKSRATISADKSKNQASLKLSSVTAADTAVYYCASYEGYYERFGYWGQGTLVTVSS
VL: B7 VL
notes: as for B7
B9: HFB6-4hz24-hG1 (antibody, human IgG1, V domains shown)
VH: EVQLVQSGAEVKKPGESLKISCKTSGFNIKDTYIHWVRQMPGKGLEWIGRNDPANGNTKYSPSFQGQVTISADKSISTAYLQLSSLKASDTAMYYCASYEGYYERFGYWGQGTLVTVSS
VL: B7 VL
notes: as for B7
B10: HFB6-5hz21-hG1 (antibody, human IgG1, V domains shown)
VH: B1 VH
VL: B7 VL with R32S, L83V, D96G, H98L, Y101R
notes: as for B1
B11: HFB6-5hz19-hG1 (antibody, human IgG1, V domains shown)
VH: QVQLVQSGAEVKKPGSSVKVSCKASGVNIKDTYMYWVRQAPGQGLEWIGRIDPANGYARYAQKFQGRATITADESTSTAYMELSSLRSEDTAVYYCAVYDGYYESFDVWGQGTLVTVSS
VL: B7 VL with R32S, L83V, D96G, H98L, Y101R
notes: as for B1
B12: HFB6-4hz22-hG1 (antibody, human IgG1, V domains shown)
VH: EVQLVESGGGLVQPGGSLKLSCATSGFNIKDTYIHWVRQASGKGLEWIGRNDPANGNTKYAASFKGRATISADDSKNTAYLQLNSLKTEDTAVYYCASYEGYYERFGYWGQGTLVTVSS
VL: B7 VL
notes: as for B7
B13: HFB6-5hz20-hG1 (antibody, human IgG1, V domains shown)
VH: B11 VH with S16A, A58T, E74T, A79V
VL: B7 VL with R32S, L83V, D96G, H98L, Y101R
notes: as for B1
B14: HFB6-5hz22-hG1 (antibody, human IgG1, V domains shown)
VH: B1 VH with R16G, R19K, T23A, P41S, V48I, T61A, G74D, S77N, I78T, M83L
VL: B7 VL with R32S, L83V, D96G, H98L, Y101R
notes: as for B1
B15: HFB6-5hz17-hG1 (antibody, human IgG1, V domains shown)
VH: B2 VH
VL: B3 VL
notes: as for B1
B16: HFB6-5hz18-hG1 (antibody, human IgG1, V domains shown)
VH: B4 VH
VL: B3 VL
notes: as for B1
B17: HFB6-4-hG1 (human-mouse chimeric monoclonal antibody) (antibody, human IgG1, kappa, V domains shown)
VH: EVQLQQSGAELVNPGASVKLSCTTSGFNIKDTYIHWVKQRPEQGLEWIGRNDPANGNTKYDPKFQGKATITADTSSSTAYLQLSSLTSEDTAVYYCASYEGYYERFGYWGQGTLVTVSA
VL: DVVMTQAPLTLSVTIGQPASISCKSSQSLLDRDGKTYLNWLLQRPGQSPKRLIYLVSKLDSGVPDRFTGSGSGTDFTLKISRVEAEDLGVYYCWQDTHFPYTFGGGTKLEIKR
notes: also called HFB6-4 parental antibody
B18: HFB6-5hz1-hG1 (antibody, human IgG1, V domains shown)
VH: B11 VH
VL: DIQMTQSPSSLSASVGDRVTITCRSSQSLLDSDGKSYLNWLQQKPGKAPKRLIYLVSKLDSGVPSRFSGSGSGTDFTLTISSLQPEDFATYYCWQGTLFPRTFGQGTKLEIK
notes: as for B1
B19: HFB6-5hz13-hG1 (antibody, human IgG1, V domains shown)
VH: B11 VH
VL: B3 VL
notes: as for B1
B20: HFB6-5hz6-hG1 (antibody, human IgG1, V domains shown)
VH: B4 VH
VL: B18 VL
notes: as for B1
B21: HFB6-5hz3-hG1 (antibody, human IgG1, V domains shown)
VH: B1 VH
VL: B18 VL
notes: as for B1
B22: HFB6-4hz1-hG1 (antibody, V domains shown)
VH: QVQLVQSGAEVKKPGSSVKVSCKTSGFNIKDTYIHWVRQAPGQGLEWIGRNDPANGNTKYAQKFQGRATITADESTSTAYMELSSLRSEDTAVYYCASYEGYYERFGYWGQGTLVTVSS
VL: B18 VL with S32R, G96D, L98H, R101Y
notes: Humanized variant of HFB6-4, human IgG1 (hG1); Only VH and VL are tied to the name
B23: HFB6-5hz5-hG1 (antibody, human IgG1, V domains shown)
VH: B2 VH
VL: B18 VL
notes: as for B1
B24: HFB6-5hz7-hG1 (antibody, human IgG1, V domains shown)
VH: B11 VH
VL: B1 VL
notes: as for B1
B25: HFB6-5hz14-hG1 (antibody, human IgG1, V domains shown)
VH: B11 VH with S16A, A58T, E74T, A79V
VL: B3 VL
notes: as for B1
B26: HFB6-5hz4-hG1 (antibody, human IgG1, V domains shown)
VH: B1 VH with R16G, R19K, T23A, P41S, V48I, T61A, G74D, S77N, I78T, M83L
VL: B18 VL
notes: as for B1
B27: HFB6-5hz8-hG1 (antibody, human IgG1, V domains shown)
VH: B11 VH with S16A, A58T, E74T, A79V
VL: B1 VL
notes: as for B1
B28: HFB6-4hz2-hG1 (antibody, human IgG1, V domains shown)
VH: B22 VH with S16A, A68V, I70M, E74T, A79V
VL: B18 VL with S32R, G96D, L98H, R101Y
notes: as for B7
B29: HFB6-5hz2-hG1 (antibody, human IgG1, V domains shown)
VH: B11 VH with S16A, A58T, E74T, A79V
VL: B18 VL
notes: as for B1

Each binder was assayed against T1, human BTLA (human, UniProt Q7Z6A9 31-289) (assay: flow cytometry, HEK293 cells overexpressing human BTLA).
T1 construct: also called hBTLA; HEK293.hBTLA
T1 sequence: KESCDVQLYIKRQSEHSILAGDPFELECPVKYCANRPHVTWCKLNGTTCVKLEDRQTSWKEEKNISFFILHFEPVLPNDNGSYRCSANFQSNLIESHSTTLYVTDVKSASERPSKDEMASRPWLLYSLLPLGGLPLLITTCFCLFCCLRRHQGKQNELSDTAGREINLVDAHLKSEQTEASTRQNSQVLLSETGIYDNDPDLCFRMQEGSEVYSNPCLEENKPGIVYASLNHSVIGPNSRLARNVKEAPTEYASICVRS
Experimental: HEK293 cells overexpressing human BTLA and Expi293 cells overexpressing cynomolus BTLA were incubated with different concentrations of humanized anti-BTLA antibodies. Anti-BTLA antibody binding to target cells were quantified with an AF647-conjugated anti-human IgG Fc secondary antibody by flow cytometry.
B1: binds. B2: binds. B3: binds. B4: binds. B5: binds. B6: binds. B7: binds. B8: binds. B9: binds. B10: binds. B11: binds. B12: binds. B13: binds. B14: binds. B15: binds. B16: binds. B17: binds. B18: binds. B19: binds. B20: binds. B21: binds. B22: binds. B23: binds. B24: binds. B25: binds. B26: binds. B27: binds. B28: binds. B29: binds.

— patent US20250388673A1 (HIFIBIO, published 2025)
